Measurements as given in doi:10.1101/758797 (bioRxiv, 2019).

Target: VPS15 (human, UniProt Q99570 1-1358)
Experiment: cryo-EM structure

Chain of VPS15 (Q99570 whole entry): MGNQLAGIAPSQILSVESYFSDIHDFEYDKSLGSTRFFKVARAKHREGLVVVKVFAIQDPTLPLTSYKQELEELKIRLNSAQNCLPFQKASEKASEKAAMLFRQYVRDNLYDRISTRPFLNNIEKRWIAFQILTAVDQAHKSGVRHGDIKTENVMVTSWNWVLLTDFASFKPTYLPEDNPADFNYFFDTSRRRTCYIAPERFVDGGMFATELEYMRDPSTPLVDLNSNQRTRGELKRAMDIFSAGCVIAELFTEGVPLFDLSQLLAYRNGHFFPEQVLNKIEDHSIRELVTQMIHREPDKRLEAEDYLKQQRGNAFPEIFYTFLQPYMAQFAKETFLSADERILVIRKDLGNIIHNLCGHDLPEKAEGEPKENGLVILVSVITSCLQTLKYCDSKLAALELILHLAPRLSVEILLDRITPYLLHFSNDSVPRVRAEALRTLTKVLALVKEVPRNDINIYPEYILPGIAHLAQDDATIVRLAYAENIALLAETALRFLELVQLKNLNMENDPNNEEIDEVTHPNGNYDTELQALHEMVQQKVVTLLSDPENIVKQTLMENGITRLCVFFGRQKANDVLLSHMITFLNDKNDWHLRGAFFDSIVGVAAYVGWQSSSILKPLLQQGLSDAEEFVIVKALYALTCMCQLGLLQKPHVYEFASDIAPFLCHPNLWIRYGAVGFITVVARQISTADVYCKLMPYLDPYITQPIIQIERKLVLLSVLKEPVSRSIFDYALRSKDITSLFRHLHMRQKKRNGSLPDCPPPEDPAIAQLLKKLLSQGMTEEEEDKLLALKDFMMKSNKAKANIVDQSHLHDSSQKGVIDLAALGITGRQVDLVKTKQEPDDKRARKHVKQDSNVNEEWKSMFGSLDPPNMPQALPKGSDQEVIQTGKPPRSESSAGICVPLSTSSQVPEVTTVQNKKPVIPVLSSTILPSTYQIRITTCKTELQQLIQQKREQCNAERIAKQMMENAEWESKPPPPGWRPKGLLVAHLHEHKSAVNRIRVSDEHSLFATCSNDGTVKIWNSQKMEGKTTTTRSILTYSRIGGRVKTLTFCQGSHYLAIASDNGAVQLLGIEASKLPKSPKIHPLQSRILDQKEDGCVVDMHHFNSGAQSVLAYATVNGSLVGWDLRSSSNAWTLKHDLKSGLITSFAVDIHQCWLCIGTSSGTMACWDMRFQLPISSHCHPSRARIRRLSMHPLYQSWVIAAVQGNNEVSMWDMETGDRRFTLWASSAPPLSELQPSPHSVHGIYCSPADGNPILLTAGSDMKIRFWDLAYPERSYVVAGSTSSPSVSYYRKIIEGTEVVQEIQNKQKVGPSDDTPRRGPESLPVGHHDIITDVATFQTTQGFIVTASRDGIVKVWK

B1: NRBF2^MIT as fused in MIT-Fusion (NRBF2 residues 1-159, S113A, S120A) (domain or fragment)
chain: MEVMEGPLNLAHQQSRRADRLLAAGKYEEAISCHKKAAAYLSEAMKLTQSEQAHLSLELQRDSHMKQLLLIQERWKRAQREERLKAQQNTDKDAAAHLQTSHKPSAEDAEGQAPLSQKYAPSTEKCLPEIQGIFDRDPDTLLYLLQQKSEPAEPCIGSK
binding result: binds
